Values belong to the binder of their own block, whether it stands above or below them.
Tests used:
[1] = molecular target: T1, recombinant human C1r2s2 tetramer (human, UniProt P09871 16-688; P00736 18-705); assay: SPR (Biacore), antibody captured on ProA/G, antigen as analyte, 37 C, pH7.4, 1.2 mM CaCl2
T1 construct: Heterotetramer of two C1r and two C1s chains, co-expressed in FreeStyle293-F cells; also called human C1r2s2s
T1 chain 1: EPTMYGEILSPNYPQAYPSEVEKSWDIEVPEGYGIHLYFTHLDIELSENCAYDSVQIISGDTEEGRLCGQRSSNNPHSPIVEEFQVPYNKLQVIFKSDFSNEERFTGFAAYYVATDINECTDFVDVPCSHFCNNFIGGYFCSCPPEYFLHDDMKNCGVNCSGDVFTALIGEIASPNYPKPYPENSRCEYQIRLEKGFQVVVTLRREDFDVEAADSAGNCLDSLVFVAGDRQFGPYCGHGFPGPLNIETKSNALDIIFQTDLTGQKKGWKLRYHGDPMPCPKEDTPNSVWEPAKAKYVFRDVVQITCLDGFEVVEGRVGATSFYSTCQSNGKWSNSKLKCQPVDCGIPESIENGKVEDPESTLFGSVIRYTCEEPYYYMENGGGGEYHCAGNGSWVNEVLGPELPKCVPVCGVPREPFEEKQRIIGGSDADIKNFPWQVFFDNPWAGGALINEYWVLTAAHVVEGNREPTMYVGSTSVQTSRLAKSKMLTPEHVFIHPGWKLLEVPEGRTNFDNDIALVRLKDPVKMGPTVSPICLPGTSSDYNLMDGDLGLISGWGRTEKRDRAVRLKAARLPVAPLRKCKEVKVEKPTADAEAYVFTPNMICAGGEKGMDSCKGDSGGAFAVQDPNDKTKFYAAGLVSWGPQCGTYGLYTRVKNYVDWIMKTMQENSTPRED
T1 chain 2: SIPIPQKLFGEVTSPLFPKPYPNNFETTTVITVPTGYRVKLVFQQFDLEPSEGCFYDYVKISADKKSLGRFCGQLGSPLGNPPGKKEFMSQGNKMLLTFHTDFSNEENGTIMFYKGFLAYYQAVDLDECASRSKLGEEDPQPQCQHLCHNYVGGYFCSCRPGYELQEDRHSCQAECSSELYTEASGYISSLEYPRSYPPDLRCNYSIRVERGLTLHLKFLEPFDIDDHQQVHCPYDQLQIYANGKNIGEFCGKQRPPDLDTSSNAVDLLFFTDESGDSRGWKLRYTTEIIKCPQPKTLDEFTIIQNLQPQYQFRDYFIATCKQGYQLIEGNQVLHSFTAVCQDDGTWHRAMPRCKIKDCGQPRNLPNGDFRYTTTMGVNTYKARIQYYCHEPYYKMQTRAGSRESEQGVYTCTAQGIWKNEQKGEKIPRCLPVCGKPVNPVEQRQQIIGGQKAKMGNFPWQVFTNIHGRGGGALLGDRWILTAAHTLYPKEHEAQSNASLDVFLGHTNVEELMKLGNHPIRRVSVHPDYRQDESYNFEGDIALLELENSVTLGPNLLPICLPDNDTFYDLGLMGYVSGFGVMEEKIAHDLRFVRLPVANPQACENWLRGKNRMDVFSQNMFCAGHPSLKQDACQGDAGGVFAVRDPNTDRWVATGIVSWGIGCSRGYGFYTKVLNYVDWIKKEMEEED
Description: (§1) The kinetic parameters of anti-C1s antibodies against recombinant human C1s (as described in PCT/JP2018/042054), human C1r2s2, and cyno C1r2s2 His/Flag (also referred as cyno C1r2s2 in the Table and Figures) were assessed at pH7.4 and pH5.8, at 37 degrees C. using BIACORE (registered trademark) T200 instrument (GE Healthcare) or BIACORE 4000 (GE Healthcare). ProAG (Pierce) was immobilized onto a CM4 sensorchip using amine coupling kit (GE Healthcare) according to the recommended settings by GE Healthcare. Antibodies and analytes were diluted into the respective running buffers, ACES pH7.4 and pH5.8 (20 mM ACES, 150 mM NaCl, 1.2 mM CaCl₂, 1 mg/ml BSA, 1 mg/ml CMD, 0.05% Tween 20, 0.005 w/v % NaN₃). Each antibody was captured onto the sensor surface by ProA/G. Antibody capture levels were typically 100-200 resonance units (RU). Then, recombinant C1s was injected at concentrations of 25 and 50 nM followed by dissociation at pH7.4 and pH5.8. The surface was regenerated using 10 mM Glycine-HCl, pH1.5. Kinetic parameters at neutral pH conditions and acidic conditions were determined by fitting the sensorgrams with 1:1 binding model using BIACORE (registered trademark) T200 Evaluation software, version 2.0 (GE Healthcare) or BIACORE 4000 Evaluation software. The dissociation rate at pH5.8 (after dissociation at pH7.4, indicated as pH5.8* in TABLE 2) was determined by processing and fitting data using Scrubber 2.0 (BioLogic Software) curve fitting software. The association rate (ka), dissociation rate (kd), binding affinity (KD) at pH7.4 and pH5.8 condition, and dissociation rate (kd) at pH5.8* condition of the antibodies are listed in TABLE 2. Some kinetic parameters of COS0098pHv1 in acidic condition were not correctly calculated because of its weak binding response.
(§2) Also, to observe the cross-reactivity of anti-C1s antibodies against human C1r2s2 and cyno C1r2s2 (cyno C1r2s2 His/Flag), BIACORE (registered trademark) kinetics analysis was performed.

[2] = molecular target: T1, recombinant human C1r2s2 tetramer; assay: SPR (Biacore), antibody captured on ProA/G, antigen as analyte, 37 C, pH5.8, 1.2 mM CaCl2; pH 5.8
Description: as §1, §2

- Kd [1]: 4 nM
- koff [1]: 0.00206 s⁻¹
- kon [1]: 514000 M⁻¹ s⁻¹
B1: COS0098pHv1 (antibody, V domains shown)
VH: QVQLVQSGAEVKKPGSSVKVSCKASGHTFSKYTVSWIRQPPGKGLEWIGIINTGGSAYPATWAKGRVTITADESTSTAYMELSSLRSEDTAVYYCARGAGDTDYTNLWGQGTLVTVSS
VL: DIQMTQSPSSLSASVGDRVTITCQASENIYSALAWYQQKPGQPPKLLIYGASQLESGVPSRFSGSGSGTDFTLTISSLQPEDFATYYCQQYYFTSHTFGQGTKVEIK
notes: Humanized, optimized pH-dependent variant of COS0098bb

- Kd [2]: 1.2 nM
- koff [2]: 0.00103 s⁻¹
- kon [2]: 858000 M⁻¹ s⁻¹
B2: COS0098bb (antibody, V domains shown)
VH: QSVEESGGRLVTPGTPLTLTCTVSGFSLTKYTVSWVRQAPGKGLEWIGIINTGGSAYYATWAKGRFTFSKTSTTVDLQITSPTTEDTATYFCARGNGDTDYTNLWGPGTLVTVSS
VL: QVLTQTPSSVSEPVGGTVTINCQASENIYSALAWYQQKPGQPPKLLIYGASNLESGVPSRFKGSGSGTQFTLTISDLECADAATYYCQQYYFTSSTFGGGTKVEIK
notes: Anti-C1s rabbit antibody, parent of COS0098pHv1; the antibody was captured by ProA/G; also called anti-C1s antibody COS0098bb

Reference: patent US20230002481A1 (Chugai, published 2023)
